This is an account of results in publication PMC9929473, “Ensembles of human myosin-19 bound to calmodulin and regulatory light chain RLC12B drive multimicron transport” (The Journal of Biological Chemistry, 2023).

The target of experiment [1] is Myo19-3xIQ-BioTag (human myosin-19 motor domain and IQ region with N-terminal FLAG tag and C-terminal biotin tag) (human) (UniProt Q96H55).
For experiment [2] the target is unchanged. The source holds these as a separate data set.
The target is the same in experiment [3]. Kind of experiment: SEC-MALS; complex fixed with glutaraldehyde during 5 to 30% glycerol gradient centrifugation (GraFix; 20 mM Hepes pH 7.5, 0.2 M NaCl, 5 mM MgCl2, 1 mM EGTA, 4 °C, without calcium), then TSKgel SuperSW2000 with MALS.
For experiment [4] the target is unchanged. The experiment in a line: co-sedimentation; as a4 with 1.1 mM CaCl2 added (0.1 mM free Ca2+).
Experiment [5] has the same target. The source holds these as a separate data set.
Experiment [6] has the same target. The experiment in a line: co-sedimentation; about 2 μM Myo19-3xIQ-BioTag preparation, 4 μM F-actin, 10 μM CaM in S-Buffer (15 mM Hepes pH 7.5, 7 mM imidazole, 125 mM NaCl, 5 mM MgCl2, 1 mM EGTA, 1 mM DTT), 200,000g 20 min; pellet on SDS-PAGE, gel densitometry with BSA, RLC12B and CaM standards; no calcium.
Experiment [7] addresses T1, Myo19-3xIQ-BioTag (human myosin-19 motor domain and IQ region with N-terminal FLAG tag and C-terminal biotin … (human, UniProt Q96H55 1-851, biotinylated on the BioTag during expression)).
T1 construct: also called HC; biotinylated Myo19; not shown: biotin tag (BioTag), C-terminal, kept
The experiment is described as above. As to conditions: both partners purified.

Experiment [8] concerns the target T1, Myo19-3xIQ-BioTag (human myosin-19 …). Kind of experiment: SEC-MALS; complex fixed with glutaraldehyde during 5 to 30% glycerol gradient centrifugation (GraFix; 20 mM Hepes pH 7.5, 0.2 M NaCl, 5 mM MgCl2, 1 mM EGTA, 4 °C, without calcium), then TSKgel SuperSW2000 with MALS. As to conditions: both partners purified.

Regarding “RLC12B purified from E. coli (MBP removed by TEV protease) (from UniProt O14950 1-172) (natural protein)”, the actin gliding speed when 1 μM RLC12B was added in solution in the presence of CaM in experiment [1] was 250 nm/s. For the same molecule, in experiment [2], the actin gliding speed of Myo19-3xIQ-BioTag (copurified with RLC12B and CaM) against added RLC12B alone, 37 °C; maximal speed at 1 μM RLC12B came to 150 nm/s; the actin gliding speed with 4 μM CaM fixed against increasing RLC12B; IC50 of an inhibition fit was 200 nM.

Broadly, the stoichiometry N is the number of molecules, sites or subunits per partner or assembly. On to “Calmodulin (CaM) coexpressed with Myo19-3xIQ-BioTag in Sf9 cells and added in excess (from UniProt P0DP23 1-149) (natural protein)”, for which the stoichiometry N in experiment [3] stood at 2. The CaM:RLC12B ratio bound to Myo19-3xIQ (CaM per RLC12B) in experiment [4] stood at 2.8. Further, in experiment [1], the actin gliding speed of Myo19 coexpressed with CaM alone against added CaM in the presence of 1 μM RLC12B; EC50 of a hyperbolic fit stood at 200 nM and the actin gliding speed of Myo19 coexpressed with CaM alone against added CaM; EC50 of a hyperbolic fit was 200 nM. The actin gliding speed with 0.1 mM free calcium against added CaM (0.1 to 10 μM CaM–Ca2+); highest speed at 4 μM in experiment [5] amounted to 210 nm/s. The actin gliding speed of Myo19-3xIQ-BioTag (copurified with RLC12B and CaM) against added CaM, 37 °C, no calcium; EC50 of a hyperbolic fit in experiment [2] came out at 700 nM. Moreover, in experiment [6], the CaM to RLC12B ratio bound to Myo19-3xIQ (CaM per RLC12B) turned out to be 1.9 and the stoichiometry N came to 3.4.

B1: RLC12B coexpressed with Myo19-3xIQ-BioTag in Sf9 cells (natural protein, human, UniProt O14950 1-172, looked up)
chain: MSSKKAKTKTTKKRPQRATSNVFAMFDQSQIQEFKEAFNMIDQNRDGFIDKEDLHDMLASLGKNPTDAYLDAMMNEAPGPINFTMFLTMFGEKLNGTDPEDVIRNAFACFDEEATGTIQEDYLRELLTTMGDRFTDEEVDELYREAPIDKKGNFNYIEFTRILKHGAKDKDD
notes: Myosin regulatory light chain 12B (RLC12B), O14950-1; also called MYL12B; source: Sf9-baculovirus, coexpressed and copurified with Myo19-3xIQ-BioTag
For B1, the “stoichiometry N” value in experiment [7] is 1.8; in experiment [8], 1.
